± gives the standard deviation of the averaged measurements.
System: Saccharomyces cerevisiae
Experiment: protein stability index of tFT-peptide fusion (C-terminal peptide) (PSI (0-1 scale)); higher = more stable (slower turnover)
Settings: temperature: 30 C
Procedure: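 MPS profiling in S. cerevisiae of the yeast C-terminome library: the last 12 aa of each annotated ORF are fused to the C-terminus of a sfGFP-mCherry timer, after a GGGS linker. Cells are FACS-sorted into 8 mCherry/sfGFP bins and deep-sequenced. PSI runs from 0 (unstable) to 1 (stable); wild type and das1Δ backgrounds, two technical replicates each.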

[1] = genetic background: das1 deletion

Row | Sequence | protein stability index [1] | protein stability index (genetic background: wild type)
1 | PTPPTPPTPPQQ [ECM19 C-terminal 12 aa] | 0.701 ± 0.014 | 0.687 ± 0.027
2 | KKKNRSKIKFNY [PTH4 C-terminal 12 aa] | 0.724 ± 0.021 | 0.589 ± 0.011
3 | RSRKNEGSYLMH [HMT1 C-terminal 12 aa] | 0.6967 ± 0.00082 | 0.693 ± 0.0082
4 | LSLIYSPHLYMS [YJL136W-A C-terminal 12 aa] | 0.643 ± 0.013 | 0.101 ± 0.0022
5 | NGANIFITSALT [YGL176C C-terminal 12 aa] | 0.691 ± 0.004 | 0.684 ± 0.016
6 | ADIMEKVHKWFA [PSE1 C-terminal 12 aa] | 0.68931 ± 0.00046 | 0.6649 ± 0.0041
7 | RLIGELGKLTED [YNL115C C-terminal 12 aa] | 0.683 ± 0.0088 | 0.701 ± 0.037
8 | FTHFTSSKDRKD [SIT1 C-terminal 12 aa] | 0.711 ± 0.026 | 0.699 ± 0.021
9 | PQMDDHTVISEI [MLO127 C-terminal 12 aa] | 0.745 ± 0.029 | 0.6854 ± 0.006
10 | NKRDKRPANFTR [TSC11 C-terminal 12 aa] | 0.7063 ± 0.0042 | 0.692 ± 0.018
11 | LCILRIVGVANF [YER039C-A C-terminal 12 aa] | 0.426 ± 0.0017 | 0.4474 ± 0.0034
12 | KRIDSYIDEMTT [MCO14 C-terminal 12 aa] | 0.723 ± 0.011 | 0.664 ± 0.054
13 | PGVDVEVVVASN [RPS20 C-terminal 12 aa] | 0.669 ± 0.0061 | 0.702 ± 0.038
14 | LDNIERDANDLS [LAM4 C-terminal 12 aa] | 0.695 ± 0.0073 | 0.678 ± 0.008
15 | LSQLVKKKPRRH [HIF1 C-terminal 12 aa] | 0.6885 ± 0.0039 | 0.729 ± 0.073
16 | EWVVPEHMLGPK [FUM1 C-terminal 12 aa] | 0.741 ± 0.0091 | 0.739 ± 0.041
17 | AFSDLSTLENAS [ATG42 C-terminal 12 aa] | 0.7267 ± 0.001 | 0.723 ± 0.03
18 | FLVLKIIKALLW [MTC4 C-terminal 12 aa] | 0.526 ± 0.013 | 0.523 ± 0.026
19 | IITGSTSTSSSN [MED8 C-terminal 12 aa] | 0.671 ± 0.017 | 0.7067 ± 0.00076
20 | REKAEAEAEKKK [RPL13A C-terminal 12 aa] | 0.704 ± 0.014 | 0.68 ± 0.0053
21 | VVGRYMRSGLKK [NOP1 C-terminal 12 aa] | 0.6704 ± 0.005 | 0.682 ± 0.028

Row | Sequence | protein stability index [1] | protein stability index (genetic background: wild type)
22 | GCDLDISYAKRL [HRB1 C-terminal 12 aa] | 0.7155 ± 0.0028 | 0.695 ± 0.035
23 | SASGKKKINKNN [ELO1 C-terminal 12 aa] | 0.6991 ± 0.0036 | 0.723 ± 0.042
24 | IIFVVLLCKKSR [ASG7 C-terminal 12 aa] | 0.299 ± 0.019 | 0.309 ± 0.019
25 | SGNYFFLDNTGI [RLI1 C-terminal 12 aa] | 0.718 ± 0.015 | 0.754 ± 0.056
26 | GAMSEGKTGQLN [YLR036C C-terminal 12 aa] | 0.699 ± 0.02 | 0.6988 ± 0.0014
27 | RELWDEEKEIVL [KES1 C-terminal 12 aa] | 0.704 ± 0.033 | 0.73 ± 0.037
28 | DDEEATAMFKLE [IES1 C-terminal 12 aa] | 0.715 ± 0.0089 | 0.6754 ± 0.0028
29 | SMKYPHTAALVR [YLR111W C-terminal 12 aa] | 0.578 ± 0.027 | 0.653 ± 0.072
30 | IHSTKEEKNCNH [YDR095C C-terminal 12 aa] | 0.712 ± 0.017 | 0.683 ± 0.029
31 | IIAIVFKILSPN [FAR10 C-terminal 12 aa] | 0.32 ± 0.023 | 0.347 ± 0.031
32 | PTWQIVEDIRNT [PMT3 C-terminal 12 aa] | 0.728 ± 0.025 | 0.718 ± 0.038
33 | LNFFAEETLDFE [EAT1 C-terminal 12 aa] | 0.734 ± 0.033 | 0.689 ± 0.033
34 | STGSETKIADCR [HSM3 C-terminal 12 aa] | 0.683 ± 0.01 | 0.695 ± 0.021
35 | YVIHLDQIDRDL [YLR269C C-terminal 12 aa] | 0.714 ± 0.0093 | 0.699 ± 0.028
36 | PAAKGKNLSFKR [RRP6 C-terminal 12 aa] | 0.7188 ± 0.0035 | 0.709 ± 0.015
37 | CKYPTKDIPIFF [RAD17 C-terminal 12 aa] | 0.727 ± 0.013 | 0.734 ± 0.013
38 | DHLHNLAQYWRT [VPS34 C-terminal 12 aa] | 0.697 ± 0.015 | 0.703 ± 0.038
39 | TEKKINTRPPFR [DAM1 C-terminal 12 aa] | 0.7012 ± 0.0011 | 0.656 ± 0.011
40 | AIWIFYIDFRVH [YCL021W-A C-terminal 12 aa] | 0.227 ± 0.024 | 0.201 ± 0.011
41 | EFDLADDRRYDI [TPO5 C-terminal 12 aa] | 0.705 ± 0.03 | 0.682 ± 0.011
42 | AKDAFTSTLPTH [GFD2 C-terminal 12 aa] | 0.7 ± 0.017 | 0.716 ± 0.021

Row | Sequence | protein stability index [1] | protein stability index (genetic background: wild type)
43 | QSLVESPPPYVP [SNA4 C-terminal 12 aa] | 0.6915 ± 0.0048 | 0.7 ± 0.015
44 | LQVKAVRAKLDE [ALD4 C-terminal 12 aa] | 0.699 ± 0.031 | 0.68 ± 0.037
45 | ETIWTEWHNLKK [DIG2 C-terminal 12 aa] | 0.726 ± 0.059 | 0.686 ± 0.0099
46 | VSGFKDEVLETV [RPS1B C-terminal 12 aa] | 0.679 ± 0.037 | 0.708 ± 0.029
47 | DNDDDAGAVPTS [CDC13 C-terminal 12 aa] | 0.7113 ± 0.0012 | 0.684 ± 0.011
48 | GFQTGSASKASA [RPL37A C-terminal 12 aa] | 0.71864 ± 0.00033 | 0.712 ± 0.019
49 | LQESKSQEKNKI [MRX19 C-terminal 12 aa] | 0.7135 ± 0.0016 | 0.782 ± 0.06
50 | NSFELNDFFITS [HAC1 C-terminal 12 aa] | 0.7145 ± 0.0011 | 0.74 ± 0.031
51 | DAFTDPRQYHLT [BUD19 C-terminal 12 aa] | 0.717 ± 0.0052 | 0.69 ± 0.0082
52 | DTFPRWEGIKSK [PAD1 C-terminal 12 aa] | 0.70511 ± 2.5e-05 | 0.6968 ± 0.0043
53 | GLCLCCTLDMLF [YDL012C C-terminal 12 aa] | 0.676 ± 0.014 | 0.6621 ± 0.0026
54 | QRRTSLDYGGYF [TAF3 C-terminal 12 aa] | 0.708 ± 0.02 | 0.725 ± 0.011
55 | ELDEIANSLENL [TPM2 C-terminal 12 aa] | 0.694 ± 0.019 | 0.683 ± 0.01
56 | TLKKRFGLVPGQ [NOP10 C-terminal 12 aa] | 0.7141 ± 0.0036 | 0.686 ± 0.029
57 | FGKYLPLNYPSE [ASG1 C-terminal 12 aa] | 0.7167 ± 0.0015 | 0.671 ± 0.015
58 | QELLKLLENEKK [SLK19 C-terminal 12 aa] | 0.727 ± 0.029 | 0.726 ± 0.047
59 | NKEYWMKHKKPQ [PDE2 C-terminal 12 aa] | 0.688 ± 0.0074 | 0.762 ± 0.013
60 | LLIQEEMKLKEV [YPK9 C-terminal 12 aa] | 0.7188 ± 0.0014 | 0.703 ± 0.022
61 | FIKLSLASSFSN [ISF1 C-terminal 12 aa] | 0.7094 ± 0.0028 | 0.661 ± 0.022
62 | CTSCGYKFRTNN [RPA12 C-terminal 12 aa] | 0.7397 ± 0.0049 | 0.2522 ± 0.002
63 | KKDKPEGWDRLP [KTR6 C-terminal 12 aa] | 0.728 ± 0.046 | 0.711 ± 0.0073

Row | Sequence | protein stability index [1] | protein stability index (genetic background: wild type)
64 | LVASNFFYAETK [TFS1 C-terminal 12 aa] | 0.7066 ± 0.00069 | 0.687 ± 0.028
65 | LELVLKNKEMEN [RSA3 C-terminal 12 aa] | 0.684 ± 0.016 | 0.706 ± 0.092
66 | PVIKKSKKCAIL [CDC42 C-terminal 12 aa] | 0.757 ± 0.0059 | 0.6072 ± 0.0055
67 | FIHDVFFVYFRF [YDL094C C-terminal 12 aa] | 0.176 ± 0.0076 | 0.17 ± 0.006
68 | KKSPGGPRQRIK [MAP1 C-terminal 12 aa] | 0.694 ± 0.033 | 0.692 ± 0.046
69 | KQPRFQLLFEFS [TTI2 C-terminal 12 aa] | 0.687 ± 0.011 | 0.6511 ± 0.0017
70 | KGARSRFQKSYR [RPS16A C-terminal 12 aa] | 0.707 ± 0.011 | 0.7188 ± 0.0055
71 | RERAKKLVTWLI [SSY1 C-terminal 12 aa] | 0.6701 ± 0.0019 | 0.475 ± 0.026
72 | LKHNGQRKLAST [ANT1 C-terminal 12 aa] | 0.685 ± 0.034 | 0.701 ± 0.033
73 | SKPALGTCLYEQ [GAL3 C-terminal 12 aa] | 0.676 ± 0.0096 | 0.665 ± 0.03
74 | KDRCGNVPHQSR [MRN1 C-terminal 12 aa] | 0.706 ± 0.0088 | 0.716 ± 0.08
75 | IYKLEYYLLTMQ [YOR199W C-terminal 12 aa] | 0.574 ± 0.011 | 0.526 ± 0.034
76 | FINKIYHQKVNL [TMN3 C-terminal 12 aa] | 0.707 ± 0.0078 | 0.781 ± 0.004
77 | IDSLIENLRFQI [DBF4 C-terminal 12 aa] | 0.7414 ± 0.0037 | 0.678 ± 0.049
78 | ESISYLFKNYPL [PRS3 C-terminal 12 aa] | 0.717 ± 0.015 | 0.6937 ± 0.0036
79 | VNHNWYSIYEST [TFC3 C-terminal 12 aa] | 0.729 ± 0.013 | 0.681 ± 0.0081
80 | GKTAADNIAKLY [OSM1 C-terminal 12 aa] | 0.6764 ± 0.004 | 0.619 ± 0.02
81 | IPELHNLKPTCV [YBR238C C-terminal 12 aa] | 0.67 ± 0.012 | 0.687 ± 0.016
82 | MVKIRTKNDAKN [TAF2 C-terminal 12 aa] | 0.7067 ± 0.0054 | 0.6135 ± 0.00067

Reference: the supplement of paper PMC10724198
